Measured values reported in patent EP4635976A1 (Medigene Immunotherapies GmbH, dated 2025).

Key:
Experiment in all cases: cell-based or functional assay
[1] = target: mismatched peptide #7 …
[2] = target: mismatched peptide #8 …
[3] = target: mismatched peptide #9 …
[4] = target: mismatched peptide #13 …
[5] = target: mismatched peptide #15 …
[6] = target: mismatched peptide #24 …
[7] = target: mismatched peptide #31 …
[8] = target: mismatched peptide #41 …
[9] = target: mismatched peptide #45 …
[10] = target: mismatched peptide #62 …
[11] = target: mismatched peptide #76 …
[12] = target: mismatched peptide #79 …
[13] = target: mismatched peptide #116 …
[14] = target: mismatched peptide #160 …
[15] = target: mismatched peptide #221 …
[16] = target: mismatched peptide #228 …
[17] = target: mismatched peptide #236 …
[18] = target: mismatched peptide #239 …
[19] = target: mismatched peptide #240 …
[20] = target: mismatched peptide #243 …
[21] = target: mismatched peptide #244 …
[22] = target: mismatched peptide #246 …
[23] = target: mismatched peptide #247 …
[24] = target: mismatched peptide #257 …
[25] = target: mismatched peptide #265 …
[26] = target: mismatched peptide #278 …
[27] = target: mismatched peptide #314 …
[28] = target: mismatched peptide #323 …
[29] = target: mismatched peptide #324 …

IFN-γ release (IFNg-ELISA), donor MIT 045 [1]: 24 pg/mL
IFN-γ release (IFNg-ELISA), donor MIT 045 [2]: 24.7 pg/mL
IFN-γ release (IFNg-ELISA), donor MIT 045 [3]: 26.5 pg/mL
IFN-γ release (IFNg-ELISA), donor MIT 045 [4]: 20.8 pg/mL
IFN-γ release (IFNg-ELISA), donor MIT038 [5]: 282 pg/mL
IFN-γ release (IFNg-ELISA), donor MIT 045 [5]: 47.1 pg/mL
IFN-γ release (IFNg-ELISA), donor MIT 045 [6]: 24.3 pg/mL
IFN-γ release (IFNg-ELISA), donor MIT038 [7]: 2130 pg/mL
IFN-γ release (IFNg-ELISA), donor MIT 045 [7]: 887 pg/mL
IFN-γ release (IFNg-ELISA), donor MIT038 [8]: 298 pg/mL
IFN-γ release (IFNg-ELISA), donor MIT 045 [8]: 55.6 pg/mL
IFN-γ release (IFNg-ELISA), donor MIT038 [9]: 1500 pg/mL
IFN-γ release (IFNg-ELISA), donor MIT 045 [9]: 177 pg/mL
IFN-γ release (IFNg-ELISA), donor MIT038 [10]: 819 pg/mL
IFN-γ release (IFNg-ELISA), donor MIT 045 [10]: 88.3 pg/mL
IFN-γ release (IFNg-ELISA), donor MIT038 [11]: 769 pg/mL
IFN-γ release (IFNg-ELISA), donor MIT 045 [11]: 150 pg/mL
IFN-γ release (IFNg-ELISA), donor MIT038 [12]: 292 pg/mL
IFN-γ release (IFNg-ELISA), donor MIT 045 [12]: 40.3 pg/mL
IFN-γ release (IFNg-ELISA), donor MIT 045 [13]: 32.4 pg/mL
IFN-γ release (IFNg-ELISA), donor MIT038 [14]: 3620 pg/mL
IFN-γ release (IFNg-ELISA), donor MIT 045 [14]: 1290 pg/mL
IFN-γ release (IFNg-ELISA), donor MIT038 [15]: 789 pg/mL
IFN-γ release (IFNg-ELISA), donor MIT 045 [15]: 101 pg/mL
IFN-γ release (IFNg-ELISA), donor MIT038 [16]: 234 pg/mL
IFN-γ release (IFNg-ELISA), donor MIT 045 [16]: 35.4 pg/mL
IFN-γ release (IFNg-ELISA), donor MIT038 [17]: 256 pg/mL
IFN-γ release (IFNg-ELISA), donor MIT 045 [17]: 32.3 pg/mL
IFN-γ release (IFNg-ELISA), donor MIT038 [18]: 229 pg/mL
IFN-γ release (IFNg-ELISA), donor MIT 045 [18]: 32.1 pg/mL
IFN-γ release (IFNg-ELISA), donor MIT038 [19]: 237 pg/mL
IFN-γ release (IFNg-ELISA), donor MIT 045 [19]: 23.4 pg/mL
IFN-γ release (IFNg-ELISA), donor MIT038 [20]: 380 pg/mL
IFN-γ release (IFNg-ELISA), donor MIT 045 [20]: 47.2 pg/mL
IFN-γ release (IFNg-ELISA), donor MIT038 [21]: 441 pg/mL
IFN-γ release (IFNg-ELISA), donor MIT 045 [21]: 45.4 pg/mL
IFN-γ release (IFNg-ELISA), donor MIT038 [22]: 321 pg/mL
IFN-γ release (IFNg-ELISA), donor MIT 045 [22]: 40.9 pg/mL
IFN-γ release (IFNg-ELISA), donor MIT038 [23]: 681 pg/mL
IFN-γ release (IFNg-ELISA), donor MIT 045 [23]: 80.5 pg/mL
IFN-γ release (IFNg-ELISA), donor MIT038 [24]: 383 pg/mL
IFN-γ release (IFNg-ELISA), donor MIT 045 [24]: 57.9 pg/mL
IFN-γ release (IFNg-ELISA), donor MIT038 [25]: 366 pg/mL
IFN-γ release (IFNg-ELISA), donor MIT 045 [25]: 43.2 pg/mL
IFN-γ release (IFNg-ELISA), donor MIT038 [26]: 464 pg/mL
IFN-γ release (IFNg-ELISA), donor MIT 045 [26]: 50.8 pg/mL
IFN-γ release (IFNg-ELISA), donor MIT 045 [27]: 26.7 pg/mL
IFN-γ release (IFNg-ELISA), donor MIT038 [28]: 3700 pg/mL
IFN-γ release (IFNg-ELISA), donor MIT 045 [28]: 658 pg/mL
IFN-γ release (IFNg-ELISA), donor MIT038 [29]: 432 pg/mL
B1: NY-ESO specific TCR (T11.8-10-17), wild type (TCR)
TCR alpha: QKEVEQNSGPLSVPEGAIASLNCTYSDRGSQSFFWYRQYSGKSPELIMFIYSNGDKEDGRFTAQLNKASQYVSLLIRDSQPSDSATYLCAADDKIIFGKGTRLHILPNIQNPDPAVYQLRDSKSSDKSVCLFTDFDSQTNVSQSKDSDVYITDKTVLDMRSMDFKSNSAVAWSNKSDFACANAFNNSIIPEDTFFPSSDVPCDVKLVEKSFETDTNLNFQNLSVIGFRILLLKVAGFNLLMTLRLWSS
TCR beta: DAGVIQSPRHEVTEMGQEVTLRCKPISGHDYLFWYRQTMMRGLELLIYFNNNVPIDDSGMPEDRFSAKMPNASFSTLKIQPSEPRDSAVYFCASSRGGSGYTFGSGTRLTVVEDLNKVFPPEVAVFEPSKAEIAHTQKATLVCLATGFFPDHVELSWWVNGKEVHSGVSTDPQPLKEQPALNDSRYCLSSRLRVSATFWQNPRNHFRCQVQFYGLSENDEWTQDRAKPVTQIVSAEAWGRADCGITSASYHQGVLSATILYEILLGKATLYAVLVSALVLMAMVKRKDF
